In publication PMC10784492, “De novo biosynthesis of antiarrhythmic alkaloid ajmaline” (Nature Communications, 2024):

How the values were obtained:
RsNNMT = target: T1, RsNNMT (Rauvolfia serpentina, UniProt A0A075D6M1); assay: LC-MS/MS detection of ajmaline in coupled reaction; type: biochemical; details: 100 μM SAM, 20 mM Tris-HCl pH 7.5, 30 °C; norajmaline formed in situ by RsAAE1/2
T1 construct: gene NNMT; N-terminal His tag, purified from E. coli

[1] = substrate: C/C=C1/[C@@H](O)N2[C@H]3C[C@@]45c6ccccc6N[C@H]4[C@@H]2C[C@@H]1C3[C@H]5OC(C)=O; assay: LC-MS/MS product quantification, Michaelis-Menten fit; type: biochemical, Rauvolfia serpentina; details: 1 mM NADPH, 20 mM Tris-HCl pH 7.5, 30 °C, 2 min, 19,20-reduction
Source text: LC-MS/MS product quantification, Michaelis-Menten fit on tDHVR (RsRR4, N-terminal truncated; tRR4)

T1 sequence (A0A075D6M1 whole entry): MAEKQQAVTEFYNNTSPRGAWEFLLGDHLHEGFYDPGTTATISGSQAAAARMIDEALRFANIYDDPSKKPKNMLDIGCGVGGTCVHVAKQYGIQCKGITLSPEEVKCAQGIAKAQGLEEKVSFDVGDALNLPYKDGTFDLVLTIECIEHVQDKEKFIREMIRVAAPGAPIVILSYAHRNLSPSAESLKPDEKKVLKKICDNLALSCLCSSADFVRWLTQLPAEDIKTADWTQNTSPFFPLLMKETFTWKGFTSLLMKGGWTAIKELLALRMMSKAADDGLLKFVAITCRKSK

Molecule	LC-MS/MS detection of ajmaline in coupled reaction (RsNNMT)	Km [1] [µM]	kcat [1] [s⁻¹]
CC[C@H]1[C@@H]2C[C@H]3[C@@H]4Nc5ccccc5[C@]45C[C@@H]([C@H]2[C@H]5O)N3[C@@H]1O [norajmaline]	ajmaline, also confirmed with an authentic standard, was produced at the expense of norajmaline	–	–
tDHVR (RsRR4, N-terminal truncated; tRR4) (Rauvolfia serpentina) (protein, N-terminally truncated 363-residue version of the 413-residue full protein (extra N-terminal 50 removed); his-tagged in pET30b(+), E. coli, Ni-NTA; OQ591882 is printed for both DHVR and RsAAE1) MAGKSPEEQHPVKAYGWAATDSSGILSPFKFSRRATGDHDVRVKILYAGVCHSDLQSARNDMGCFTYPLVPGFETVGTATEVGSKVTKVKVGDKVAVGIMVGSCGKCDECVNDRECYCPEVITSYGRIDHDGTPTYGGFSSETVANEKFVFCFPEKLPMAAGAPLLNAGVSVYSAMRFYGLDKPGMHLGVVGLGGLGHLAVKFAKAFGVKVTVISTSTSKKGEAINDLGADAFLVSTDAEQMQAGSGTLDGILDTVPVVHPIEALLGLLKNHTKLVLVGATMGSFELPILPLGVGRKSVVSTIGGSTKETQEMLDFAAEHDITASVEIIPMDYVNTAMERIEKGDVRYRFVIDIGNTLTPPES	–	32.0	10.4
